Results as given in article PMC10397247.
Blank lines part the entries; values can stand above or below the binder they belong to.

How the values were obtained:
4H953-bA = target: T1, 4H953-bA; experiment: two-hybrid library CCNG1;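 also: natural log of median RNA to DNA barcode read ratio; higher means stronger binding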
T1 chain: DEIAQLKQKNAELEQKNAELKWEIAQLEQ

4H331-bA = target: T2, 4H331-bA; experiment: two-hybrid library CCNG1;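 also: natural log of median RNA to DNA barcode read ratio; higher means stronger binding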
T2 chain: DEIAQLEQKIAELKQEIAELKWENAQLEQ

4H72-bA = target: T3, 4H72-bA; experiment: two-hybrid library CCNG1;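 also: natural log of median RNA to DNA barcode read ratio; higher means stronger binding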
T3 chain: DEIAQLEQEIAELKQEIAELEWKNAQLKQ

4H908-bA = target: T4, 4H908-bA; experiment: two-hybrid library CCNG1;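 also: natural log of median RNA to DNA barcode read ratio; higher means stronger binding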
T4 chain: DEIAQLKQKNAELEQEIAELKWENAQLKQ

4H3185-bA = target: T5, 4H3185-bA; experiment: two-hybrid library CCNG1;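 also: natural log of median RNA to DNA barcode read ratio; higher means stronger binding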
T5 chain: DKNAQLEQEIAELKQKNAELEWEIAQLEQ

4H575-bA = target: T6, 4H575-bA; experiment: two-hybrid library CCNG1;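 also: natural log of median RNA to DNA barcode read ratio; higher means stronger binding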
T6 chain: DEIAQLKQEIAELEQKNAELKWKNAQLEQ

4H346-bA = target: T7, 4H346-bA; experiment: two-hybrid library CCNG1
T7 chain: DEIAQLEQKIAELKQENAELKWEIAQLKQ

4H780-bA = target: T8, 4H780-bA; experiment: two-hybrid library CCNG1
T8 chain: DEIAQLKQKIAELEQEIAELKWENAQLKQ

4H967-bA = target: T9, 4H967-bA; experiment: two-hybrid library CCNG1
T9 chain: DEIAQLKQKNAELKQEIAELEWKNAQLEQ

4H607-bA = target: T10, 4H607-bA; experiment: two-hybrid library CCNG1
T10 chain: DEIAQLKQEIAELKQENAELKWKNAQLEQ

4H797-bA = target: T11, 4H797-bA; experiment: two-hybrid library CCNG1
T11 chain: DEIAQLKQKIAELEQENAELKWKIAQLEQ

4H754-bA = target: T12, 4H754-bA; experiment: two-hybrid library CCNG1
T12 chain: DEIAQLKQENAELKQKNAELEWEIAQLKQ

4H855-bA = target: T13, 4H855-bA; experiment: two-hybrid library CCNG1
T13 chain: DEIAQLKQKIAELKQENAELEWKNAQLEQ

4H918-bA = target: T14, 4H918-bA; experiment: two-hybrid library CCNG1
T14 chain: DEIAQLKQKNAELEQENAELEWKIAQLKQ

4H3354-bA = target: T15, 4H3354-bA; experiment: two-hybrid library CCNG1
T15 chain: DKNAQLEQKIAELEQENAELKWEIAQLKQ

4H338-bA = target: T16, 4H338-bA; experiment: two-hybrid library CCNG1
T16 chain: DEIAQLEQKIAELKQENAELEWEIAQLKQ

4H4001-bA = target: T17, 4H4001-bA; experiment: two-hybrid library CCNG1
T17 chain: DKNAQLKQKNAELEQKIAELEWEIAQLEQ

4H3782-bA = target: T18, 4H3782-bA; experiment: two-hybrid library CCNG1
T18 chain: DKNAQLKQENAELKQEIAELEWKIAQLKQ

4H683-bA = target: T19, 4H683-bA; experiment: two-hybrid library CCNG1
T19 chain: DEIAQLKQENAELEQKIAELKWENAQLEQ

4H457-bA = target: T20, 4H457-bA; experiment: two-hybrid library CCNG1
T20 chain: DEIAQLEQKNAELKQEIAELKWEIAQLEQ

4H883-bA = target: T21, 4H883-bA; experiment: two-hybrid library CCNG1
T21 chain: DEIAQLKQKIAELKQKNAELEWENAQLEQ

4H454-bA = target: T22, 4H454-bA; experiment: two-hybrid library CCNG1
T22 chain: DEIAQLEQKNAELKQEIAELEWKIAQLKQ

4H687-bA = target: T23, 4H687-bA; experiment: two-hybrid library CCNG1
T23 chain: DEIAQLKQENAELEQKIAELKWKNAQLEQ

4H568-bA = target: T24, 4H568-bA; experiment: two-hybrid library CCNG1
T24 chain: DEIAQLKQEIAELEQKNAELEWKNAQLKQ

4H3427-bA = target: T25, 4H3427-bA; experiment: two-hybrid library CCNG1
T25 chain: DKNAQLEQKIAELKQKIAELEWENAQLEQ

4H717-bA = target: T26, 4H717-bA; experiment: two-hybrid library CCNG1
T26 chain: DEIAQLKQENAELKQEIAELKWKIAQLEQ

4H3926-bA = target: T27, 4H3926-bA; experiment: two-hybrid library CCNG1
T27 chain: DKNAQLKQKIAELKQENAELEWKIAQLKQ

4H968-bA = target: T28, 4H968-bA; experiment: two-hybrid library CCNG1
T28 chain: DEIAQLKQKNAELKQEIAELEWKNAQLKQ

4H4073-bA = target: T29, 4H4073-bA; experiment: two-hybrid library CCNG1
T29 chain: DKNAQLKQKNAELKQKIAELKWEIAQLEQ

4H3855-bA = target: T30, 4H3855-bA; experiment: two-hybrid library CCNG1
T30 chain: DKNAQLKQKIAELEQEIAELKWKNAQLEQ

4H3112-bA = target: T31, 4H3112-bA; experiment: two-hybrid library CCNG1
T31 chain: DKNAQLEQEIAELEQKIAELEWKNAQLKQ

O9-bH = target: T32, O9-bH; experiment: two-hybrid library CCNG1
T32 chain: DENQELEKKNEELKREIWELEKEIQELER

O7-bH = target: T33, O7-bH; experiment: two-hybrid library CCNG1
T33 chain: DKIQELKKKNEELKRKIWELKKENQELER

O6-bH = target: T34, O6-bH; experiment: two-hybrid library CCNG1
T34 chain: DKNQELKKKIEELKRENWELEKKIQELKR

O4-bH = target: T35, O4-bH; experiment: two-hybrid library CCNG1
T35 chain: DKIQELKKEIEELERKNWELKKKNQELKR

O8-bH = target: T36, O8-bH; experiment: two-hybrid library CCNG1
T36 chain: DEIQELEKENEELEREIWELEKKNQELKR

O5-bH = target: T37, O5-bH; experiment: two-hybrid library CCNG1
T37 chain: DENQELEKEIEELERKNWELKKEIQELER

4H3782-AA = target: T38, 4H3782-AA; experiment: two-hybrid library CCmax; details: mean of both orientations
T38 chain: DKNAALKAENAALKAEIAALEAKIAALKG

P3-AA = target: T39, P3-AA; experiment: two-hybrid library CCmax
T39 chain: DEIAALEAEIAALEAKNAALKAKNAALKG

4H355-AA = target: T40, 4H355-AA; experiment: two-hybrid library CCmax; details: mean of both orientations
T40 chain: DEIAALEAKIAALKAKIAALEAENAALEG

4H_APH = target: T41, 4H_APH; experiment: two-hybrid library CCmax; details: mean of both orientations
T41 chain: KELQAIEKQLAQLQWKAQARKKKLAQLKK

4H3705-AA = target: T42, 4H3705-AA; experiment: two-hybrid library CCmax; details: mean of both orientations
T42 chain: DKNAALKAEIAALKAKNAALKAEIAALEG

4H535-AA = target: T43, 4H535-AA; experiment: two-hybrid library CCmax; details: mean of both orientations
T43 chain: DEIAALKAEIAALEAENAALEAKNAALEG

4H895-AA = target: T44, 4H895-AA; experiment: two-hybrid library CCmax; details: mean of both orientations
T44 chain: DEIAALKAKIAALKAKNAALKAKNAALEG

4H3651-AA = target: T45, 4H3651-AA; experiment: two-hybrid library CCmax; details: mean of both orientations
T45 chain: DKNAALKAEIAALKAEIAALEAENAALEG

4H_GCN4 = experiment: two-hybrid library CCmax
GCN2_T = experiment: two-hybrid library CCmax
4H486-AA = target: T46, 4H486-AA; experiment: two-hybrid library CCmax; details: mean of both orientations
T46 chain: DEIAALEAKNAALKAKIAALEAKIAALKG

4H3365-AA = target: T47, 4H3365-AA; experiment: two-hybrid library CCmax
T47 chain: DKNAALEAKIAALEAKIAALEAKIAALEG

4H58-AA = target: T48, 4H58-AA; experiment: two-hybrid library CCmax; details: mean of both orientations
T48 chain: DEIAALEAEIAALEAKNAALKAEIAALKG

4H465-AA = target: T49, 4H465-AA; experiment: two-hybrid library CCmax; details: mean of both orientations
T49 chain: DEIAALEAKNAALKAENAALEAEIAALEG

4H_BCR = target: T50, 4H_BCR; experiment: two-hybrid library CCmax; details: mean of both orientations
T50 chain: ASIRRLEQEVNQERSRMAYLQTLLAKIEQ

4H_GCN4, sequence (chain, as listed by the source): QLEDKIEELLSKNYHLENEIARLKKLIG

- interaction score (4H953-bA): -0.984
- interaction score (4H331-bA): 0.496
- interaction score (4H72-bA): -0.233
- interaction score (4H908-bA): 0.0545
- interaction score (4H3185-bA): 0.447
- interaction score (4H575-bA): -0.587
- interaction score (4H346-bA): -0.0408
- interaction score (4H780-bA): -0.567
- interaction score (4H967-bA): -0.715
- interaction score (4H607-bA): -0.643
- interaction score (4H797-bA): 0.364
- interaction score (4H754-bA): -0.483
- interaction score (4H855-bA): 1.01
- interaction score (4H918-bA): -1.88
- interaction score (4H3354-bA): 0.000615
- interaction score (4H338-bA): -0.842
- interaction score (4H4001-bA): -0.41
- interaction score (4H3782-bA): -0.731
- interaction score (4H683-bA): -0.379
- interaction score (4H457-bA): -0.509
- interaction score (4H883-bA): 0.791
- interaction score (4H454-bA): -1.72
- interaction score (4H687-bA): -1.13
- interaction score (4H568-bA): -1.31
- interaction score (4H3427-bA): 1.55
- interaction score (4H717-bA): 0.267
- interaction score (4H3926-bA): -0.342
- interaction score (4H968-bA): -1.09
- interaction score (4H4073-bA): 1.32
- interaction score (4H3855-bA): -0.227
- interaction score (4H3112-bA): 1.17
B1: 4H3112-bA (peptide)
chain: DKNAQLEQEIAELEQKIAELEWKNAQLKQ

- interaction score (O9-bH): -2.1
- interaction score (O7-bH): 0.376
- interaction score (O6-bH): 0.0257
- interaction score (O4-bH): -1.04
- interaction score (O8-bH): 1.07
- interaction score (O5-bH): -1.47
B2: O4-bH (peptide)
chain: DKIQELKKEIEELERKNWELKKKNQELKR

- interaction score (4H3782-AA): -1.46
- interaction score (P3-AA): -2.3
- interaction score (4H355-AA): -0.823
- interaction score (4H_APH): -1.21
- interaction score (4H3705-AA): -1.25
- interaction score (4H535-AA): -1.33
- interaction score (4H895-AA): -1.35
- interaction score (4H3651-AA): -0.441
- interaction score (4H_GCN4): -1.72
- interaction score (GCN2_T): -1.79
- interaction score (4H486-AA): -1.2
- interaction score (4H3365-AA): 1.76
- interaction score (4H58-AA): -1.67
- interaction score (4H465-AA): -1.05
- interaction score (4H_BCR): -1.47
B3: 4H3365-AA (peptide)
chain: DKNAALEAKIAALEAKIAALEAKIAALEG
